From the Immune Epitope Database (IEDB)

Legend:
[1] = target: HLA-B*40:01; test: IEDB peptide-MHC binding, purified MHC/direct/fluorescence; filed as Kd, often an IC50 or EC50 that approximates it; ≥ and ≤ were set here for values at or beyond the usual limits of such assays
[2] = target: HLA-B*15:01; test: as above
[3] = target: HLA-A*02:01; test: as above
[4] = target: HLA-A*69:01; test: as above
[5] = target: HLA-A*31:01; test: as above
[6] = target: HLA-A*03:01; test: as above
[7] = target: HLA-B*27:05; test: as above
[8] = target: HLA-B*07:02; test: as above; conditions: source organism: Escherichia coli O157:H7
[9] = target: HLA-B*58:01; test: as above
[10] = target: HLA-A*11:01; test: as above
[11] = target: HLA-A*01:01; test: as above
[12] = target: HLA-A*02:06; test: IEDB peptide-MHC binding, purified MHC/competitive/radioactivity; filed as Kd, often an IC50 or EC50 that approximates it; ≥ and ≤ were set here for values at or beyond the usual limits of such assays
[13] = target: HLA-A*02:03; test: as above
[14] = target: HLA-A*02:02; test: as above
[15] = source organism: Mycobacterium tuberculosis variant bovis
[16] = source organism: Burkholderia pseudomallei
[17] = source organism: Escherichia coli O157:H7
[18] = source organism: Francisella tularensis subsp. holarctica LVS
[19] = source organism: Haemophilus influenzae
[20] = source organism: Yersinia enterocolitica
[21] = source organism: SARS coronavirus Tor2
[22] = source organism: Salmonella enterica subsp. enterica serovar Typhimurium
[23] = source organism: Vaccinia virus WR
[24] = source organism: Coxiella burnetii
[25] = source organism: Salmonella enterica
[26] = source organism: Rickettsia prowazekii
[27] = source organism: Brucella melitensis

AELRHLNPL gave a Kd ([1]; source organism: Mycobacterium tuberculosis variant bovis BCG str. Pasteur 1173P2) of 44.2 nM.

Sequence AISAQVAAY has a Kd ([2]; source organism: Mycobacterium tuberculosis F11) of 1270 nM.

For ALASFLFGF, the Kd ([2]; source organism: Pseudomonas aeruginosa) was 745 nM.

In the case of ALPGPDGVV, the Kd [3, 15] is reported as 553 nM and the Kd [4, 15] is reported as ≥ 20000 nM.

With AQAIGRVER the Kd [5, 16] was 37.3 nM and the Kd [6, 16] was ≥ 20000 nM.

CMKSFFGWK showed a Kd ([6]; source organism: Influenza A virus (A/duck/Fujian/17/2001(H5N1))) of 848 nM.

EEITPHCAL showed a Kd ([1]; source organism: Mammarenavirus lassaense) of 26.6 nM.

In the case of ETWVETWAF, the Kd [7, 17] is reported as ≥ 20000 nM, the Kd [3, 17] is reported as ≥ 20000 nM and the Kd [8] is reported as ≥ 20000 nM. For the same sequence, the Kd [9, 17] was 3000 nM, the Kd [6, 17] was ≥ 20000 nM and the Kd [2, 17] was 1170 nM.

GLFPFHFTL showed a Kd ([3]; source organism: Mycobacterium tuberculosis) of 0.4 nM.

With GVYTGSIGY the Kd [6, 18] was 2.6 nM and the Kd [10, 18] was 1.6 nM.

ILWGYGFLQ gave a Kd [3, 19] of 218 nM, a Kd [9, 19] of 4790 nM and a Kd [4, 19] of 12900 nM.

Sequence IMDASSFTL has a Kd [3, 20] of 30.8 nM, a Kd [11, 20] of 5700 nM and a Kd [9, 20] of 49.5 nM. For the same sequence, the Kd [4, 20] was 997 nM, the Kd [2, 20] was 138 nM and the Kd [1, 20] was 432 nM.

With IQQLPETYF the Kd ([3]; source organism: SARS-CoV1) was 16800 nM, the Kd ([9]; source organism: SARS-CoV1) was ≥ 23400 nM and the Kd ([2]; source organism: SARS-CoV1) was 188 nM. The Kd ([10]; source organism: SARS-CoV1) was ≥ 51000 nM.

Work on KLWAQCVQL yielded a Kd [12, 21] of 9.47 nM, a Kd [13, 21] of 194 nM and a Kd [14, 21] of 12.7 nM. For the same sequence, the Kd ([5]; source organism: SARS-CoV1) was 304 nM, the Kd ([3]; source organism: SARS-CoV1) was 109 nM and the Kd ([6]; source organism: SARS-CoV1) was 2860 nM.

KQPNRPLFI was tested, and the Kd [3, 22] was 6000 nM and the Kd [4, 22] was ≥ 20000 nM.

Work on LVKDESIQL yielded a Kd [12, 23] of 1400 nM, a Kd [13, 23] of 649 nM and a Kd [14, 23] of 122 nM.

Work on MQKFTILEYL yielded a Kd [12, 23] of 909 nM, a Kd [13, 23] of 279 nM and a Kd [14, 23] of 164 nM.

NILMDSIFV gave a Kd [12, 23] of 170 nM, a Kd [13, 23] of 223 nM and a Kd [14, 23] of 252 nM.

NLCKYLRGHT was tested, and the Kd [12, 23] was ≥ 69800 nM, the Kd [13, 23] was 8040 nM and the Kd [14, 23] was ≥ 39600 nM.

In the case of NLVQYRILPM, the Kd [12, 23] is reported as ≥ 24500 nM, the Kd [13, 23] is reported as 1330 nM and the Kd [14, 23] is reported as 3990 nM.

NVSGVPHSV showed a Kd [12, 23] of 278 nM, a Kd [13, 23] of 24 nM and a Kd [14, 23] of 825 nM.

For PTDMLKLFT, the Kd [12, 23] was ≥ 69200 nM, the Kd [13, 23] was ≥ 47000 nM and the Kd [14, 23] was ≥ 29100 nM.

For PTWFGISFR, the Kd [5, 24] was 209 nM and the Kd [6, 24] was ≥ 20000 nM.

Sequence QIGGEAIFLI has a Kd [12, 23] of 14.8 nM, a Kd [13, 23] of 0.201 nM and a Kd [14, 23] of 8.19 nM.

QLCDEITIL was tested, and the Kd [3, 22] was 744 nM and the Kd [2, 22] was 1200 nM.

In the case of QVLQQNNSFI, the Kd [12, 23] is reported as 2320 nM, the Kd [13, 23] is reported as 3180 nM and the Kd [14, 23] is reported as 544 nM.

RAFIYSIMET showed a Kd [12, 23] of 578 nM, a Kd [13, 23] of 69.7 nM and a Kd [14, 23] of 81.4 nM.

For REKIDGVKL, the Kd ([1]; source organism: Influenza A virus (A/Hong Kong/1131/1998(H1N1))) was 46.9 nM.

With RFLTHYFTK the Kd [11, 24] was ≥ 20000 nM.

RILGAGCFV was tested, and the Kd [12, 21] was 38 nM, the Kd [13, 21] was 53.3 nM and the Kd [14, 21] was 24.4 nM.

RLYYDSMSY was tested, and the Kd ([5]; source organism: SARS-CoV1) was 6940 nM, the Kd ([7]; source organism: SARS-CoV1) was 4810 nM and the Kd ([3]; source organism: SARS-CoV1) was ≥ 22800 nM. For the same sequence, the Kd ([11]; source organism: SARS-CoV1) was 7950 nM, the Kd ([9]; source organism: SARS-CoV1) was 778 nM and the Kd ([2]; source organism: SARS-CoV1) was 130 nM.

RSWQPPQPR was tested, and the Kd [5, 25] was 35 nM and the Kd [6, 25] was ≥ 20000 nM.

SAVFKDSFL was tested, and the Kd [12, 23] was 1140 nM, the Kd [13, 23] was 536 nM and the Kd [14, 23] was 231 nM.

Sequence SICLDYIIV has a Kd [12, 23] of 689 nM, a Kd [13, 23] of 8650 nM and a Kd [14, 23] of 1460 nM.

For SISEINEWL, the Kd [12, 23] was 6.29 nM, the Kd [13, 23] was 1.84 nM and the Kd [14, 23] was 0.129 nM.

STVDVRNIV was tested, and the Kd [12, 23] was 1630 nM, the Kd [13, 23] was 3480 nM and the Kd [14, 23] was 6330 nM.

TAYIGTSNWT was tested, and the Kd [12, 23] was 220 nM, the Kd [13, 23] was 1050 nM and the Kd [14, 23] was 1770 nM.

In the case of TIDKSSPLYI, the Kd [12, 23] is reported as 1820 nM, the Kd [13, 23] is reported as 12.3 nM and the Kd [14, 23] is reported as 387 nM.

For TLNEYKQLYT, the Kd [12, 23] was ≥ 69800 nM, the Kd [13, 23] was 773 nM and the Kd [14, 23] was 144 nM.

In the case of TMKAIEKDRL, the Kd [12, 23] is reported as ≥ 69800 nM, the Kd [13, 23] is reported as 1060 nM and the Kd [14, 23] is reported as 171 nM.

For TSSDTYACW, the Kd ([9]; source organism: SARS-CoV1) was 14.5 nM and the Kd ([10]; source organism: SARS-CoV1) was 19400 nM.

Work on TVPTNDHIPV yielded a Kd [12, 23] of 515 nM, a Kd [13, 23] of 1890 nM and a Kd [14, 23] of 1680 nM.

For VASDVCKKNL, the Kd [12, 23] was ≥ 69800 nM, the Kd [13, 23] was ≥ 70400 nM and the Kd [14, 23] was ≥ 50900 nM.

VLALYSPPLI was tested, and the Kd [12, 23] was 868 nM, the Kd [13, 23] was 101 nM and the Kd [14, 23] was 15.7 nM.

For VTTNNLLEQL, the Kd [12, 23] was 5910 nM, the Kd [13, 23] was 17900 nM and the Kd [14, 23] was 4690 nM.

VVGKPYKEV showed a Kd [3, 26] of 1960 nM and a Kd [4, 26] of 605 nM.

With WLTPFEKEFT the Kd [12, 23] was ≥ 30800 nM, the Kd [13, 23] was 1550 nM and the Kd [14, 23] was 2370 nM.

In the case of WMARRHAER, the Kd [5, 27] is reported as 13.9 nM and the Kd [6, 27] is reported as ≥ 20000 nM.

YIPPCQCTV gave a Kd [12, 23] of 92.5 nM, a Kd [13, 23] of 445 nM and a Kd [14, 23] of 196 nM.

For YTRPEIDVL, the Kd [12, 23] was 154 nM, the Kd [13, 23] was 73.6 nM and the Kd [14, 23] was 115 nM.

In the case of YVPSAEDNYL, the Kd [12, 23] is reported as ≥ 69800 nM, the Kd [13, 23] is reported as ≥ 70400 nM and the Kd [14, 23] is reported as ≥ 70000 nM.
